In the DeepSol protein solubility set:

Experiment: soluble on expression in E. coli; label from the status in PepcDB or PDB records

Row | Sequence | soluble on expression in E. coli
1 | MFRLGTTPRATTYDPDARIGEVASRFGLPTRVLIEIVRTESFQRSLARVTSGKPVVLDLRELDSDLASWIATHARLVEPALRELVRTVAPDVEPRVRFRGLPHRFRRVERIRPMDGALISIEGVVREVRGAERLEHAIVDTGSELVAVRLHGHRLGPGLRVEILGIVRSATLDALEVHKKDPIPEVHPDPAELEEFRELADKDPLTTFARAIAPLPGAEEVGKMLALQLFSCVGKNSERLHVLLAGYPVVCSEILHHVLDHLAPRGVYVDLRRTELTDLTAVLKEDRGWALRAGAAVLADGGILAVDHLEGAPEPHRWALMEAMDKGTVTVDGIALNARCAVLAAINPGEQWPSDPPIARIDLDQDFLSHFDLIAFLGVDPRPGEPEEQDTEVPSYTLLRRYLLYAIREHPAPELTEEARKRLEHWYETRREEVEERLGMGLPTLPVTRRQLESVERLAKAHARMRLSDDVEPEDVDIAAELVDWYLETAMQIPGGDEIRISSLKP | soluble
2 | MSLSFDVVFVGHRRGEVRSDNAMLGLLCDAAFDELTRPDVVIFPGGIGTRTLIHDQTVLDWVREAHRHTLLTTSVCTGGLVLAAAGLLNGLTATTHWRVQDLFNSLGARYVPQRVVEHLPERVITAAGVSSGIDMGLRLVELLVSREAAEASQLMIEYDPQPPVDAGSLAKASPATHRLALEFYQHREGHHHHHH | not soluble
3 | MSRRAPMFKPLPITLQRGALRLEPLVEADIPELVSLAEANREALQYMDGPTRPDWYRQSLAEQREGRALPLAVRLGVQLVGTTRFAEFLPALPACEIGWTWLDQAQHGSGLNRMIKYLMLKHAFDNLRMVRVQLSTAASNLRAQGAIDKLGAQREGVLRNHRRLAGGRLDDTFVYSITDHEWPQVKAALEASFTG | soluble
4 | MTEAPKIEKSFNEISDMEQIFVEHHSFGIVSLSSISESLKRLELSADLNIQELLAIKKVLQSSSDMIHFYSDLDNVSFQSLDRLFENLEQFPNLQGSFQAINDGGFLEHFASPELERIRRQLTNSERRVRQILQDMLKEKAELLSENLIASRSGRSVLPVKNTYRNRISGVVHDISSSGSTVYIEPRAVVTLNEEITQLRADERHEESRILHAFSDLLRPHVATIRNNAWILGHLDFVRAKYLFMSDNKATIPEISNDSTLALINVRHPLLSNPVANDLHFDQDLTAIVITGPNTGGKTIMLKTLGLAQLMGQSGLPVLADKGSKIAVFNNIFADIGDEQSIEQSLSTFSSHMTHIVSILNEADHNSLVLFDELGAGTDPQEGASLAMAILEHLRLSNIKTMATTHYPELKAYGIETNFVENASMEFDAETLSPTYRFMQGVPGRSNAFEIASRLGLAPFIVKQAKQMTDSDSDVNRIIEQLEAQTLETRRRLDHIKEVEQENLKFNRAVKKLYNEFSHERDKELEKIYQEAQEIVDMALNESDTILKKLNDKSQLKPHEIIDAKAQIKKLAPQVDLSKNKVLNKAKKIKAARAPRIGDDIIVTSYGQRGTLTSQLKDGRWEAQVGIIKMTLTQDEFTLVRVQEEQKVKSKQINVVKKADSSGPRARLDLRGKRYEEAMQELDNFIDQALLNNMGQVDIIHGIGTGVIREGVTKYLRRNKHVKHFAYAPQNAGGSGATIVTLGLEHHHHHH | not soluble
5 | MAHHHHHHMQQQQQVPVGLQLMRQPYRATAEQFQRFIVGLDAVLNQWTALHLVSQHCDLSALTSMYRELVSWFQKDGEVYSDDLEIFFENFFGEARSVIVEDDSMKEVGDVLHDMYCRCCQNDFSTVERYVASLEVYRRVNPVQLSMNVGGADDEDELAGAGAMSNTYDGVVGNEEEEMETMGDGLDMKDEVEESEQRKKRRSKKRKNAYERDADGWCVVRN | not soluble
6 | MSLDVCRGMLCGFGAVCEPSVEDPGRASCVCKKNVCPAMVAPVCGSDASTYSNECELQRAQCNQQRRIRLLRQGPCGSRDPCANVTCSFGSTCVPSADGQTASCLCPTTCFGAPDGTVCGSDGVDYPSECQLLRHACANQEHIFKKFDGPCDPCQGSMSDLNHICRVNPRTRHPEMLLRPENCPAQHTPICGDDGVTYENDCVMSRIGAARGLLLQKVRSGQCQTRDQCPETCQFNSVCLSRRGRPHCSCDRVTCDGAYRPVCAQDGHTYDNDCWRQQAECRQQQTIPPKHQGPCDQTPSPCRGAQCAFGATCTVKNGKAVCECQRVCSGGYDPVCGSDGVTYGSVCELESMACTLGREIRVARRGPCDRCGQCRFGSLCEVETGRCVCPSECVESAQPVCGSDGHTYASECELHVHACTHQISLYVASAGHCQTCGETVCTFEGHHHHHH | not soluble
7 | GPGSMHASVVLNMCTASQYTRRTLQSLFERREVDLSALVHVLADNAGYLAATQQGCISLMRVFELCDAAQKAELVRELLPKLAALSMDAFANYMVQCAIEHSDRATAAQYVVAHFTGNILQMSCNKHSSNVLEVVLRCCGEVPAVRRLFLDELVFNPAALKEVVGDLYGNFVVQALIGVVTNPMEFKRVEDRLRPALVGCQFAAKIEGKIKAKRPVPPHAGGAVHHHSYPQSRQQRPLSVPCTMPDHVGPCAPSVRATIALPQAPVMSLGEARVPTQGYCHRPYDCNPLCCAPLAAEQQQPQNVVQAPSGHVYPVDHFQFPILKERTAARAAGAVPVTDGEDSGPVYGPSPAARRHLQQQQQQAFRPPFNIMC | not soluble
8 | GMREMQIMSQPEQSRLDLFIDRMVSQRACLEHAIAQTAGLSGPVYELGLGNGRTYHHLRQHVQGREIYVFERAVASHPDSTPPEAQLILGDIRETLPATLERFGATASLVHADLGGHNREKNDRFARLISPLIEPHLAQGGLMVSSDRMYFEGLEELPLPPGAVVGRCFIYRRG | soluble
9 | MIKGMKTRGERLKARRLELKLTLKQVAEAVGISLPGVQNLERGDVMPSLEIGLSLAKCLRKPVQWILYGTESDPDRVPVIGTTETGPDRDWQPGEPANTERFLPFVSQRNTVYALTVGNQIQRNYQPGDVILVDSSLTLVPGEDVLVCDNNGEITIQRLARYDEQHYYLDSANSQRVIHDKSDLQFVHQVVGTIKSFMVEGR | not soluble
10 | MNNRSAVRILRLPAVIQKTGMARATIYDWLNPKSPRYDATFPKKRMLGVKSVGWIEAEIDEWLSQRCKLILEHHHHHH | not soluble
11 | MSDKRETRIKSVQNLAPVYNVRDDAKTRRRVALTQMLGRAYNQFNAGDDAAAEKLLEEVLRQDRSSIDAWTLRATIYSKRGDVVHSGEYYRKAAQLAPQRGDVLNNYGAWLCANGYPAEALVWFERAMADPAYGEQPGTLANSGGCALQAGQRDRADHDLRRALELDPSNAYALESMARNEYDKHRYFEARAFSERRLATTVPATASVLKLAIQIEQELGDRAAASRYQQRLVKEFPETVAVEPRG | soluble
12 | MVALRGKEIDAFLARPDAGRPIVLLYGPDAGLVRERADALIASAVDDPNDPFSLVRLDGDELSAEPSRLVDEAMTVPLFGGQRAIRVRAGSRSFASGIDTLAEMGVKDCRIVIEAGELRPESPLRKACERAKTAVAIGCYPDTERDLAKLMDDELRIANLRIAQDARAALMSFLGGDRQASRNELRKLTLYAHGKGEITLEDVMAVVADASELKLDPIVDGAFAGRPDIVETEFAKAMIAGTYPGVIISAAQRQAAWLHKSALAIADGQPASAVLDGGFPRLHFSRKPAVETALRNFSVARLAAIIEQLATAALDTRKQSTLAAAIAQRTLMAIAANAKRRGLEHHHHHH | not soluble
13 | MGSDKIHHHHHHMSSLQILQGTFRLSDTKTLQLPQLTLNAGDSWAFVGSNGSGKSALARALAGELPLLKGERQSQFSHITRLSFEQLQKLVSDEWQRNNTDMLGPGEDDTGRTTAEIIQDEVKDAPRCMQLAQQFGITALLDRRFKYLSTGETRKTLLCQALMSEPDLLILDEPFDGLDVASRQQLAERLASLHQSGITLVLVLNRFDEIPEFVQFAGVLADCTLAETGAKEELLQQALVAQLAHSEQLEGVQLPEPDEPSARHALPANEPRIVLNNGVVSYNDRPILNNLSWQVNPGEHWQIVGPNGAGKSTLLSLVTGDHPQGYSNDLTLFGRRRGSGETIWDIKKHIGYVSSSLHLDYRVSTTVRNVILSGYFDSIGIYQAVSDRQQKLVQQWLDILGIDKRTADAPFHSLSWGQQRLALIVRALVKHPTLLILDEPLQGLDPLNRQLIRRFVDVLISEGETQLLFVSHHAEDAPACITHRLEFVPDGGLYRYVLTKIY | not soluble
14 | SHEELNDQLRVRREKLKKIEELGVDPFGKRFERTHKAEELFELYGDLSKEELEEQQIEVAVAGRIMTKRGMGKAGFAHIQDVTGQIQIYVRQDDVGEQQYELFKISDLGDIVGVRGTMFKTKVGELSIKVSSYEFLTKALRPLPEKYHGLKDIEQRYRQRYLDLIMNPESKKTFITRSLIIQSMRRYLDSHGYLEVETPMMHAVAGGAAARPFITHHNALDMTLYMRIAIELHLKRLIVGGLEKVYEIGRVFRNEGISTRHNPEFTMLELYEAYADFRDIMKLTENLIAHIATEVLGTTKIQYGEHLVDLTPEWRRLHMVDAIKEYVGVDFWRQMSDEEARELAKEHGVEVAPHMTFGHIVNEFFEQKVEDKLIQPTFIYGHPVEISPLAKKNPDDPRFTDRFELFIVGREHANAFTELNDPIDQRQRFEEQLKEREQGNDEAHEMDEDFLEALEYGMPPTGGLGIGVDRLVMLLTNSPSIRDVLLFPQMRHK | soluble
15 | MSHAVSRLRQERLARSLKPFVARGSRMPRCEGCRLLPSYCMCAWRPRVEARAGMCLVMHDIEALKPTNTGWLIADTVADTFAFGWSRTEVDPRLLELLADPQWQPYLVFPGEYVAAERVVNEVAPLVEGKRPLFILLDATWTEARKMFRKSPYLEPFPVLSLLPEQLSRYRLRRSTRGEHLCTAEVAALCLELAGDEAAGEALGAYLEVFSERYLGAKRHIPLDEASPAHRALAPFRG | not soluble
16 | MRISNGSGGDNVFTSGRFRRRGAATPLISLDFIVENGQGEILLGQRLNRPAQGYWFVPGGRVCKDETLEAAFARLTQAELGVRLPLAAGTFYGVWQHFYDDNFSGEDFSTHYIVLGFRLRVAESDLRLPDAQHGSYRWLTPEQLLASDNVHENSRAYFSPDAPAVGL | not soluble
17 | MGHHHHHHSHAQHNYVISLTTEQKRRKHITEEFGKQNIPFEFFDAITPDIIEETAKKFNITLDRSPKAKLSDGEIGCALSHIVLWDLALENNLNYINIFEDDIHLGENAKELLEIDYISDDIHVLKLEANGKMFFKQPKSVKCDRNVYPMTVKQSGCAGYTVTAKGAKYLLELVKNKPLDVAVDSLV | soluble
18 | ASSGIVKMVSPTSKIEPCIVSVTYGSMTLNGLWLDDKVYCPRHVICSSSNMNEPDYSALLCRVTLGDFTIMSGRMSLTVVSYQMQGCQLVLTVSLQNPYTPKYTFGNVKPGETFTVLAAYNGRPQGAFHVTMRSSYTIKGSFLCGSCGSVGYVLTGDSVKFVYMHQLELSTGCHTGTDFTGNFYGPYRDAQVVQLPVKDYVQTVNVIAWLYAAILNNCAWFVQNDVCSTEDFNVWAMANGFSQVKADLVLDALASMTGVSIETLLAAIKRLYMGFQGRQILGSCTFEDELAPSDVYQQLAGV | soluble
19 | MAHHHHHHMLRGVTIKCGNVTNAVRVPSRFISMAPTRNEEKATQKRNKWEYILSLDEALYLSKEMGIKTTTEVQKIVMRSPPFSPDMSPFLIDNFLCSANRGSHSDEIAQIDQKLKALEERGDNSQESEKGEVQVALHNNEMNDTAQNREEDIINKILIDKFNKKRGKTFIHNDMEWLEESEGIGTNKRSSAYVYIKRGSGIVKVNDEEDLYIRWPYFYNRMDVLEPFYVTNTACVFDVFIKLKGGGISGQSKAARLAVGRALLNACPLIYDELKQHHILYEDMRQKLPKMPGRKKSRAMKQWSKR | not soluble
